US20240148892A1 (DUALITY BIOLOGICS SUZHOU, published 2024)

T1: human full-length B7H3 expressed on MCF-7 cells (human, UniProt Q5ZPR3 29-534)
T1 sequence: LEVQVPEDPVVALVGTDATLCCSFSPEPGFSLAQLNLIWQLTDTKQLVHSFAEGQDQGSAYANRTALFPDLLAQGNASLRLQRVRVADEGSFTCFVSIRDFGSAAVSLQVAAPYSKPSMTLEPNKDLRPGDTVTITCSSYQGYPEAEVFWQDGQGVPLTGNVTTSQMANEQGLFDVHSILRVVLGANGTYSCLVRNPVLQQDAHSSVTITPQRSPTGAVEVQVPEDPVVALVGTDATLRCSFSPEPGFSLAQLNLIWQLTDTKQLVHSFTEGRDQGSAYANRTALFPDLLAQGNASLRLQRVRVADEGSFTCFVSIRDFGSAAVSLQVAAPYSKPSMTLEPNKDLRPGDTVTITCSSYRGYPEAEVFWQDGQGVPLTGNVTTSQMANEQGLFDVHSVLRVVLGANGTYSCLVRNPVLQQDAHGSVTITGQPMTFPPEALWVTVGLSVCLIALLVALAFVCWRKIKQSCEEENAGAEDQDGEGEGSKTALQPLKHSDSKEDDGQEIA

T2: human 4IgB7H3 extracellular domain, 6xHis (human, UniProt Q5ZPR3 29-461)
T2 construct: range 29-461; Made in house in Expi293F cells; 47.8 kDa used in the SPR calculation; also called analyte human 4IgB7H3
T2 sequence: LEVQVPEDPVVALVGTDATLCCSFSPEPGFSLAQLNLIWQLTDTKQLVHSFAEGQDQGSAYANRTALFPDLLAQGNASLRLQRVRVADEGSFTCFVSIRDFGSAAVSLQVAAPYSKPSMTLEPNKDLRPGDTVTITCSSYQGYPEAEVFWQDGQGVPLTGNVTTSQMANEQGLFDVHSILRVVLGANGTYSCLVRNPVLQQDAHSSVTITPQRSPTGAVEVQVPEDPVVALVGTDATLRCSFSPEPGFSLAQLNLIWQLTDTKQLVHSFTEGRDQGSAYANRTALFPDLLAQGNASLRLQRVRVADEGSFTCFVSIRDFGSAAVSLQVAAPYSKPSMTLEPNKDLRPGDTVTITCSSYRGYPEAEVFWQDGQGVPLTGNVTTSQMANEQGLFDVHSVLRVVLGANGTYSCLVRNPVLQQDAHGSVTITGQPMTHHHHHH

T3: Human B7-H3(4Ig), His Tag (human, UniProt Q5ZPR3 29-461)
T3 construct: Bought protein; also called recombinant human B7H3 antigen; human B7-H3 protein; not shown: His tag
T3 sequence (looked up): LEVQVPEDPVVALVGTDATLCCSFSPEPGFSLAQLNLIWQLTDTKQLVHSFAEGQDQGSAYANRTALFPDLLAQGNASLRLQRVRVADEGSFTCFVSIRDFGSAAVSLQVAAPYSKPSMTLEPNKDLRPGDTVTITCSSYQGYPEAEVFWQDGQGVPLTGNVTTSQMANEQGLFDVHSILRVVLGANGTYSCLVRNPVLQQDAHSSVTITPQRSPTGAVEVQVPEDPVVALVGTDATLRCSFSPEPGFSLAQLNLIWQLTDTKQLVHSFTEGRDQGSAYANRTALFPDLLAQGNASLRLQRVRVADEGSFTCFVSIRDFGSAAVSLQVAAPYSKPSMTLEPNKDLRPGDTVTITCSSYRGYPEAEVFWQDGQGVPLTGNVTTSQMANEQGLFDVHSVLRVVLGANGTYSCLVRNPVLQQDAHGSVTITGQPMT


Tests used:
[1] = target: T1, human full-length B7H3 expressed on …; experiment: cell-based or functional assay
[2] = target: T2, human 4IgB7H3 extracellular domain, …; experiment: SPR (Biacore 8K), antibody captured on anti-human Fc IgG, human 4IgB7H3 as analyte, 1:1 model
Protocol: (§1) The affinity of antibodies for human 4IgB7H3 was determined using surface plasmon resonance (SPR). The affinity of antibodies for human 4IgB7H3 was determined by Biacore 8K. An activator was prepared by mixing 400 mM EDC and 100 mM NHS (GE) immediately prior to injection into the channel. The CMS sensor chip was activated for 420 seconds with the activator. Goat anti-human Fc IgG (30 μg/mL in 10 mM NaAc, pH 4.5) was then injected into the channel at a flow rate of 10 μL/min for 420 seconds. The chip was deactivated by 1 M ethanolamine hydrochloric acid. The antibodies diluted in running buffer (1×HBS-EP+) were injected into the channel at a flow rate of 10 μL/min for 30 seconds. […] Glycine (10 mM, pH 1.5) was injected as regeneration buffer after the dissociation phase.
The sensorgrams for the reference channel and the buffer channel were subtracted from the test sensorgrams. The experimental data were fitted with a 1:1 binding model. The molecular weight of the human 4IgB7H3 used in the calculation was 47.8 kDa.
(§2) The experimental data were fitted by a 1:1 binding model bundled with the Biacore 8K evaluation software.

[3] = target: T4, Cynomolgus monkey B7-H3/CD276 protein, His tag (cynomolgus monkey); experiment: SPR (Biacore 8K), antibody captured on anti-human Fc IgG, cynomolgus monkey B7H3 as analyte, 1:1 model
T4 construct: Bought protein; 49 kDa used in the SPR calculation; also called ACRO B73-C52Ha
Protocol: as §1, with “cynomolgus monkey B7H3” for “human 4IgB7H3”
The sensorgrams for the reference channel and the buffer channel were subtracted from the test sensorgrams. […] The molecular weight of the cynomolgus monkey B7H3 used in the calculation was 49 kDa.
as §2

[4] = target: T3, Human B7-H3(4Ig), His Tag; experiment: ELISA, plate coated with 2 µg/mL recombinant human B7-H3 (4Ig) His, serially diluted antibody, HRP anti-human secondary antibody, OD450
Protocol: A 96-well ELISA plate was coated with 2 μg/mL recombinant human B7H3 antigen (see the table above) at 30 μL/well and kept at 4° C. overnight. The following day, the well plate was washed 3 times with PBST and then blocked with 5% skim milk for 2 h. […] The plate was then washed 3 times with PBST, and an HRP-labeled anti-human secondary antibody diluted in a 1:5000 ratio was then added at 100 μL/well and incubated for 1 h. After the incubation was complete, the plate was washed six times with PBST, and TMB (SurModics, TMBS-1000-01) was added for color development. Based on the results of the color development, the reaction was stopped by adding 2M HCl, and the plate was read by a microplate reader (Molecular Devices, SpecterMax 190) at OD450.

Antibody internalization EC50 (nM), MCF-7 cells, high-content imaging [1] | Kd [2] | koff [2] | kon [2] | Kd [3] | koff [3] | kon [3] | Binder | EC50 (read off the curve) [4]
0.51 nM | 0.0515 nM | 3.39e-05 s⁻¹ | 657000 M⁻¹ s⁻¹ | 0.0564 nM | 2.94e-05 s⁻¹ | 521000 M⁻¹ s⁻¹ | W301088-1.145.16-xIgG1KV320 (antibody, V domains shown) VH: DVQLQESGPGLVKPSQSLSLTCTVTDYSITGDYAWNWIRQFPGNKLEWMGYISYSGSTSYNPSLQSRISITRDTSKNQFFLQLNSVTSEDTATYFCARSLGRRWYFVVWGAGTTVTVSA VL: not shown | 
1.95 nM | 1.02 nM | 0.000126 s⁻¹ | 124000 M⁻¹ s⁻¹ | 0.441 nM | 8.14e-05 s⁻¹ | 185000 M⁻¹ s⁻¹ | Enoblituzumab (MacroGenics) (antibody, V domains shown) VH: EVQLVESGGGLVQPGGSLRLSCAASGFTFSSFGMHWVRQAPGKGLEWVAYISSDSSAIYYADTVKGRFTISRDNAKNSLYLQMNSLRDEDTAVYYCGRGRENIYYGSRLDYWGQGTTVTVSS VL: DIQLTQSPSFLSASVGDRVTITCKASQNVDTNVAWYQQKPGKAPKALIYSASYRYSGVPSRFSGSGSGTDFTLTISSLQPEDFATYYCQQYNNYPFTFGQGTKLEIKR | 

Binder | Antibody internalization EC50 (nM), MCF-7 cells, high-content imaging [1] | Kd [2] | koff [2] | kon [2] | Kd [3] | koff [3] | kon [3] | EC50 (read off the curve) [4]
W301088-1.145.16-z3-p1-uIgG1KV320 (antibody, V domains shown, Humanized, PTM-removed (VL N027dQ) human IgG1 LALA kappa antibody; also called WBP301088; W301088-z3-p1) VH: QVQLQESGPGLVKPSQTLSLTCTVTDYSITGDYAWNWIRQHPGKGLEWIGYISYSGSTSYNPSLQSRVTISRDTSKNQFSLKLSSVTAADTAVYFCARSLGRRWYFVVWGQGTTVTVSS VL: not shown | 0.44 nM | 0.0708 nM | 4.65e-05 s⁻¹ | 657000 M⁻¹ s⁻¹ | 0.0574 nM | 3.02e-05 s⁻¹ | 527000 M⁻¹ s⁻¹ | ~0.2 µg/mL
